Consider two molecules from publication PMC7610992 (Journal of molecular biology, 2006).

The chains are these.
B1: RhlB-CTD, carboxy-terminal domain of RhlB helicase (domain or fragment, E. coli)
chain: MRIKEELFYPSNEEKMRLLQTLIEEEWPDRAIIFANTKHRCEEIWGHLAADGHRVGLLTGDVAQKKRLRILDEFTRGDLDILVATDVAARGLHIPAVTHVFNYDLPDDCEDYVHRIGRTGRAGASGHSISLACEEYALNLPAIETYIGHSIPVSKYNPDALMTDLPKPLRLTRPRTGNGPRRTGAPRNRRRSG
B2: RNase E (628-843) (domain or fragment, E. coli, UniProt P21513 628-843, looked up)
chain: ERTEGSDNREENRRNRRQAQQQTAETRESRQQAEVTEKARTADEQQAPRRERSRRRNDDKRQAQQEAKALNVEEQSVQETEQEERVRPVQPRRKQRQLNQKVRYEQSVAEEAVVAPVVEETVAAEPIVQEAPAPRTELVKVPLPVVAQTAPEQQEENNADNRDNGGMPRRSRRSPRHLRVSGQRRRRYRDERYPTQSPMPLTVACASPELASGKVW

Assay [1] addresses B2. Kind of assay: SEC + cross-linking + native MS.
The target of assay [2] is T1, RNA helicase B (RhlB), full-length helicase (E. coli, UniProt P0A8J8 1-421).
T1 sequence (looked up): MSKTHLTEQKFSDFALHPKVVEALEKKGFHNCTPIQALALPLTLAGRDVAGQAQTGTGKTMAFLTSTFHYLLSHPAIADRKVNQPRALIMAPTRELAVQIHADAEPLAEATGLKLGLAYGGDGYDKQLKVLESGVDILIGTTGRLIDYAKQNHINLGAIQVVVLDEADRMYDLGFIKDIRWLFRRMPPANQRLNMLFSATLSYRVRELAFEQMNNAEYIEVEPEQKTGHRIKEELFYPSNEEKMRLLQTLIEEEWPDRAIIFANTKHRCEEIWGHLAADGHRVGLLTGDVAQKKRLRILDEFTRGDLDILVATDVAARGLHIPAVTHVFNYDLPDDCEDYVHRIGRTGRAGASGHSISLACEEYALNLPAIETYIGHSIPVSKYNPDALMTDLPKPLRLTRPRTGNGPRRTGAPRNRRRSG
The experiment in a line: limited proteolysis with native gel and mass spectrometry.

In general, stoichiometry N refers to the number of molecules, sites or subunits per partner or assembly. Turning to B1, the “stoichiometry N” value in assay [1] was 1 RhlB-CTD per RNase E (628-843).

On to B2, for which the binding result in assay [2] is “binds”.
